Results from the supplement of paper PMC5998384.

Assays:
HeLa Kyoto [1] = experiment: solubility change mitosis vs G1/S (difference of NP-40 vs SDS log2 ratios) (log2 ratio difference); higher = more soluble in mitosis
HeLa Kyoto [2] = experiment: thermal stability score vs G1/S (z-score of summed log2 fold changes over temperatures); higher = more thermally stable than in G1/S
HeLa Kyoto [3] = experiment: solubility in G1/S (NP-40 vs SDS abundance) (log2 ratio); higher = more soluble; conditions: cell cycle stage: G1/S
HeLa Kyoto [4] = experiment: melting temperature (median over replicates), in situ; higher = more thermally stable
[5] = cell cycle stage: early G1 (4.5 h after nocodazole release)
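Wherever melting temperature (median over replicates), in situ is given: HeLa Kyoto cells synchronized by double thymidine or nocodazole block, proteins quantified by TMT10plex mass spectrometry, three independent biological replicates.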
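Wherever solubility change mitosis vs G1/S (difference of NP-40 vs SDS log2 ratios) is given: synchronized HeLa Kyoto cells (double thymidine block for G1/S, nocodazole release for mitosis), protein amounts in NP-40 versus SDS lysates quantified by mass spectrometry, three biological replicates.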
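Wherever solubility in G1/S (NP-40 vs SDS abundance) is given: HeLa Kyoto cells arrested at G1/S by double thymidine block, proteins quantified by TMT10plex mass spectrometry in mild NP-40 versus SDS extracts, three biological replicates.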
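Wherever thermal stability score vs G1/S (z-score of summed log2 fold changes over temperatures) is given: synchronized HeLa Kyoto cells, proteins quantified by TMT10plex mass spectrometry, three biological replicates, mitosis taken 0.5 h after nocodazole release, G1/S directly after double thymidine block.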

| Sequence | solubility change mitosis (log2) (HeLa Kyoto [1]) | thermal stability score (HeLa Kyoto [2]; [5]) | thermal stability score (HeLa Kyoto [2]; cell cycle stage: mitosis) | solubility in G1/S (log2) (HeLa Kyoto [3]) | melting temperature (HeLa Kyoto [4]; cell cycle stage: G1/S) [°C] | melting temperature (HeLa Kyoto [4]; cell cycle stage: mitosis) [°C] |
| --- | --- | --- | --- | --- | --- | --- |
| MILNSLSLCYHNKLILAPMVRVGTLPMRLLALDYGADIVYCEELIDLKMIQCKRVVNEVLSTVDFVAPDDRVVFRTCEREQNRVVFQMGTSDAERALAVARLVENDVAGIDVNMGCPKQYSTKGGMGAALLSDPDKIEKILSTLVKGTRRPVTCKIRILPSLEDTLSLVKRIERTGIAAIAVHGRKREERPQHPVSCEVIKAIADTLSIPVIANGGSHDHIQQYSDIEDFRQATAASSVMVARAAMWNPSIFLKEGLRPLEEVMQKYIRYAVQYDNHYTNTKYCLCQMLREQLESPQGRLLHAAQSSREICEAFGLGAFYEETTQELDAQQARLSAKTSEQTGEPAEDTSGVIKMAVKFDRRAYPAQITPKMCLLEWCRREKLAQPVYETVQRPLDRLFSSIVTVAEQKYQSTLWDKSKKLAEQAAAIVCLRSQGLPEGRLGEESPSLHKRKREAPDQDPGGPRAQELAQPGDLCKKPFVALGSGEESPLEGW [DUS2] | -0.0821 | 0.209 | 0.349 | -0.0157 | 50.3 | 50.9 |
| MIPNGYLMFEDENFIESSVAKLNALRKSGQFCDVRLQVCGHEMLAHRAVLACCSPYLFEIFNSDSDPHGISHVKFDDLNPEAVEVLLNYAYTAQLKADKELVKDVYSAAKKLKMDRVKQVCGDYLLSRMDVTSCISYRNFASCMGDSRLLNKVDAYIQEHLLQISEEEEFLKLPRLKLEVMLEDNVCLPSNGKLYTKVINWVQRSIWENGDSLEELMEEVQTLYYSADHKLLDGNLLDGQAEVFGSDDDHIQFVQKKPPRENGHKQISSSSTGCLSSPNATVQSPKHEWKIVASEKTSNNTYLCLAVLDGIFCVIFLHGRNSPQSSPTSTPKLSKSLSFEMQQDELIEKPMSPMQYARSGLGTAEMNGKLIAAGGYNREECLRTVECYNPHTDHWSFLAPMRTPRARFQMAVLMGQLYVVGGSNGHSDDLSCGEMYDSNIDDWIPVPELRTNRCNAGVCALNGKLYIVGGSDPYGQKGLKNCDVFDPVTKLWTSCAPLNIRRHQSAVCELGGYLYIIGGAESWNCLNTVERYNPENNTWTLIAPMNVARRGAGVAVLNGKLFVCGGFDGSHAISCVEMYDPTRNEWKMMGNMTSPRSNAGIATVGNTIYAVGGFDGNEFLNTVEVYNLESNEWSPYTKIFQF [IVNS1ABP] | -0.0597 | -2.78 | -1.82 | -0.0792 | 50.7 | 49.2 |
| MIRRVLPHGMGRGLLTRRPGTRRGGFSLDWDGKVSEIKKKIKSILPGRSCDLLQDTSHLPPEHSDVVIVGGGVLGLSVAYWLKKLESRRGAIRVLVVERDHTYSQASTGLSVGGICQQFSLPENIQLSLFSASFLRNINEYLAVVDAPPLDLRFNPSGYLLLASEKDAAAMESNVKVQRQEGAKVSLMSPDQLRNKFPWINTEGVALASYGMEDEGWFDPWCLLQGLRRKVQSLGVLFCQGEVTRFVSSSQRMLTTDDKAVVLKRIHEVHVKMDRSLEYQPVECAIVINAAGAWSAQIAALAGVGEGPPGTLQGTKLPVEPRKRYVYVWHCPQGPGLETPLVADTSGAYFRREGLGSNYLGGRSPTEQEEPDPANLEVDHDFFQDKVWPHLALRVPAFETLKVQSAWAGYYDYNTFDQNGVVGPHPLVVNMYFATGFSGHGLQQAPGIGRAVAEMVLKGRFQTIDLSPFLFTRFYLGEKIQENNII [FOXRED1] | 0.0476 | 1.19 | 0.0541 | -0.0625 | 51.5 | 51.6 |
| MIWYILIIGILLPQSLAHPGFFTSIGQMTDLIHTEKDLVTSLKDYIKAEEDKLEQIKKWAEKLDRLTSTATKDPEGFVGHPVNAFKLMKRLNTEWSELENLVLKDMSDGFISNLTIQRQYFPNDEDQVGAAKALLRLQDTYNLDTDTISKGNLPGVKHKSFLTAEDCFELGKVAYTEADYYHTELWMEQALRQLDEGEISTIDKVSVLDYLSYAVYQQGDLDKALLLTKKLLELDPEHQRANGNLKYFEYIMAKEKDVNKSASDDQSDQKTTPKKKGVAVDYLPERQKYEMLCRGEGIKMTPRRQKKLFCRYHDGNRNPKFILAPAKQEDEWDKPRIIRFHDIISDAEIEIVKDLAKPRLRRATISNPITGDLETVHYRISKSAWLSGYENPVVSRINMRIQDLTGLDVSTAEELQVANYGVGGQYEPHFDFARKDEPDAFKELGTGNRIATWLFYMSDVSAGGATVFPEVGASVWPKKGTAVFWYNLFASGEGDYSTRHAACPVLVGNKWVSNKWLHERGQEFRRPCTLSELE [P4HA1] | -0.0564 | 3.59 | 6.2 | 0.216 | 55.3 | 54.1 |
